This is an account of results in the supplement of paper PMC12042874.

± gives the uncertainty stated by the source.

The data set is described as follows: amyloid nucleation score (Sup35N fusion, yeast selection) (log enrichment); library NNK3; higher = more nucleation; inactive = no reads after selection. The method, boiled down: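 In psi-negative yeast, Sup35N fusions carrying peptides of 20 random codons were induced with 100 μM copper sulfate for 24 hours. The cells then grew 7 days at 30°C on medium lacking adenine and uracil, and plasmid inserts from input and output were Illumina-sequenced, excluding sequences with under 100 input reads. Nucleation score is the DiMSum log enrichment of output over input reads, centred on the mode score of non-aggregating sequences.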
Regarding LQQCFYMVNFFMLSSLAVLL, the amyloid nucleation score result was “inactive”.
Next, RFCRSSWMYPVEGQVGHIRE: “inactive”; LYFYNIESLAMIFNMNENLV: 2.31 ± 0.058; EGYACIVYCLGPINLLMWCT: “inactive”.
In turn, SSLPRPLVFRSLFVWREYIQ yielded an amyloid nucleation score of -0.06 ± 0.77.
Regarding IMVRGVRDS, the amyloid nucleation score result was “inactive”.
Next, ADMCPVDRRVLDLVSKRAMS: “inactive”.
The result for DIQTLPKLDLVFFVWAILEL reads “inactive”.
Next, GTSIYSYRYLRYFSMFNM: “inactive”; WHAFRLMWDSNMLLLRGSVV: “inactive”.
In the case of AKICLFV, the amyloid nucleation score entry is “inactive”.
Next, TLWMGF: “inactive”.
The result for GENIEYMF reads 0.025 ± 0.31; that for VTHCSVFHLGNTWLVQLWWY, -0.513 ± 1.3.
The result for TAFTYYASVSFVSRL reads 1.38 ± 0.093; that for ILGRSSISFDLM, “inactive”; that for CKTLFFCMWNCFCFTVYSWF, “inactive”.
LSAADSMCGKRCLRGTP: the amyloid nucleation score result was “inactive”.
Next, ITSCCFVTLISVMSYGPCFG: 2.45 ± 0.089; SGDPGGHQSRR: “inactive”; LNSSVYVLLRSILPSVWNQL: “inactive”.
The result for TLVGYLIARLFWR reads “inactive”.
Next, GRCVEVCLIWLTKGDQQCSY: “inactive”.
VLRSAYAALFLNRFSRFDCR: the amyloid nucleation score result was “inactive”.
The result for LWSSDVEFLYGCASSCDFMG reads “inactive”; that for CCIIYVVRRGE, 1.28 ± 0.096.
As to TRNIMRSIMVPSTWRVFITV, the amyloid nucleation score entry was “inactive”.
Take LVYAKNMLFDNKDWCV: the amyloid nucleation score entry was “inactive”.
In the case of YSCLRLYATNHVTLWICELK, the amyloid nucleation score result is “inactive”.
Consider NPWPAWPGTSCIRDLQTSIR, for which the amyloid nucleation score result is “inactive”.
The result for LSLWRWSVHS reads “inactive”; that for GNSSII, “inactive”; that for AVQYPSVCWNYKSNSMHC, “inactive”.
The result for LTQLTIIKTGLTCLMA reads “inactive”.
LVSHSTMLPVSFFAHYRGEV: the amyloid nucleation score result was “inactive”.
The result for GIGNCYLMLQTKIFEWFFSE reads “inactive”; that for GYRLRYNFVVFLM, 1.02 ± 0.21; that for LQSSMSIYSQFWSVDSLFYE, 0.04 ± 0.66.
With FESMGFHPRSVIYEYVCELN, the amyloid nucleation score result is “inactive”.
In the case of GSKESPKRYSSSALASVGVI, the amyloid nucleation score entry is “inactive”.
The result for GCARLAIMSKLPSCW reads “inactive”.
The result for IVCYLSFASLDDLRTRHMCT reads “inactive”; that for NYHTFSYCI, “inactive”.
The result for HLVRCNDRSNLRESGPS reads “inactive”; that for WMMDEMLVFLTH, “inactive”; that for SNYFTFYLFNVRGIWGFADC, 2.56 ± 0.07.
For the substance CMVNFS, the amyloid nucleation score result is “inactive”.
For the substance PLCVWVWKLRVVFRRLYFEF, the amyloid nucleation score entry is “inactive”.
The result for CNVIE reads “inactive”.
The result for DNCEDEDKNRRNVRLYRGWV reads “inactive”.
Turning to CNLGWRNLDMVKG, the amyloid nucleation score result is “inactive”.
The result for QHKQVNGFTITYTLGHCYTY reads “inactive”.
The result for FANSY reads “inactive”; that for LLHRTWVFNSELPWCRYVLK, “inactive”.
